Test results as given in JP2008512352A (dated 2008).
“And” between values parts separate entries of the source, which are not always exact repeats. Equal entries are not always repeated. Blank lines part the entries; values can stand above or below the binder they belong to.

Experiments:
[1] = target: EGFR (腫瘍細胞上) (UniProt P00533 25-1210, limits assumed); experiment: cell-based or functional assay
[2] = target: T1, ヒトEGFR (プレート被覆) (human, UniProt P00533 25-645); experiment: direct binding ELISA on immobilised EGFR (ED50: antibody concentration giving 50% of maximal binding)
T1 construct: extracellular domain; 'Extracellular domain' in the legend is read as applying to both EGFR and IGFR; also called 固定化EGFR

[3] = target: T2, IGFR 細胞外ドメイン (プレート被覆) (human, UniProt P08069 31-935); experiment: direct binding ELISA on immobilised IGFR (ED50: antibody concentration giving 50% of maximal binding)
T2 construct: extracellular domain; 'ヒト' in the legend is read as applying to both EGFR and IGFR; also called 固定化IGFR; IGF-IR

- DiFi細胞の増殖阻害 IC50 (MTT) [1]: ~1 nM
B1: IMC-11F8 (antibody, V domains shown)
VH: QVQLQESGPGLVKPSQTLSLTCTVSGGSISSGDYYWSWIRQPPGKGLEWIGYIYYSGSTDYNPSLKSRVTMSVDTSKNQFSLKVNSVTAADTAVYYCARVSIFGVGTFDYWGQGTLVTVSS
VL: EIVMTQSPATLSLSPGERATLSCRASQSVSSYLAWYQQKPGQAPRLLIYDASNRATGIPARFSGSGSGTDFTLTISSLEPEDFAVYYCHQYGSTPLTFGGGTKAEIK

- DiFi細胞の増殖阻害 IC50 (MTT) [1]: 25 nM
- EC50 [2]: 0.1 nM and 0.2 nM
- EC50 [3]: 0.25 nM and 0.5 nM
B2: 抗-EGFR/抗-IGFR ジ-ダイアボディ (bispecific antibody)
chain 1: B1 VH
chain 2: B1 VL
chain 3: EVQLVQSGAEVKKPGSSVKVSCKASGGTFSSYAISWVRQAPGQGLEWMGGIIPIFGTANYAQKFQGRVTITADKSTSTAYMELSSLRSEDTAVYYCARAPLRFLEWSTQDHYYYYYMDVWGKGTTVTVSS
chain 4: SSELTQDPAVSVALGQTVRITCQGDSLRSYYASWYQQKPGQAPVLVIYGKNNRPSGIPDRFSGSSSGNTASLTITGAQAEDEADYYCNSRDNSDNRLIFGGGTKLTVL

- EC50 [3]: 0.1 nM
B3: IMC-A12 (antibody, V domains shown)
VH: B2 chain 3
VL: B2 chain 4
